Test results reported in paper PMC5660122 (2017).

B1: rat serum albumin (natural protein)
chain: EAHKSEIAHRFKDLGEQHFKGLVLIAFSQYLQKCPYEEHIKLVQEVTDFAKTCVADENAENCDKSIHTLFGDKLCAIPKLRDNYGELADCCAKQEPERNECFLQHKDDNPNLPPFQRPEAEAMCTSFQENPTSFLGHYLHEVARRHPYFYAPELLYYAEKYNEVLTQCCTESDKAACLTPKLDAVKEKALVAAVRQRMKCSSMQRFGERAFKAWAVARMSQRFPNAEFAEITKLATDVTKINKECCHGDLLECADDRAELAKYMCENQATISSKLQACCDKPVLQKSQCLAEIEHDNIPADLPSIAADFVEDKEVCKNYAEAKDVFLGTFLYEYSRRHPDYSVSLLLRLAKKYEATLEKCCAEGDPPACYGTVLAEFQPLVEEPKNLVKTNCELYEKLGEYGFQNAVLVRYTQKAPQVSTPTLVEAARNLGRVGTKCCTLPEAQRLPCVEDYLSAILNRLCVLHEKTPVSEKVTKCCSGSLVERRPCFSALTVDETYVPKEFKAETFTFHSDICTLPDKEKQIKKQTALAELVKHKPKATEDQLKTVMGDFAQFVDKCCKAADKDNCFATEGPNLVARSKEALA
B2: cynomolgus serum albumin (natural protein)
chain: DTHKSEVAHRFKDLGEEHFKGLVLVAFSQYLQQCPFEEHVKLVNEVTEFAKTCVADESAENCDKSLHTLFGDKLCTVATLRETYGEMADCCAKQEPERNECFLQHKDDNPNLPPLVRPEVDVMCTAFHDNEATFLKKYLYEVARRHPYFYAPELLFFAARYKAAFAECCQAADKAACLLPKLDELRDEGKASSAKQRLKCASLQKFGDRAFKAWAVARLSQKFPKAEFAEVSKLVTDLTKVHTECCHGDLLECADDRADLAKYMCENQDSISSKLKECCDKPLLEKSHCLAEVENDEMPADLPSLAADYVESKDVCKNYAEAKDVFLGMFLYEYARRHPDYSVMLLLRLAKAYEATLEKCCAAADPHECYAKVFDEFQPLVEEPQNLVKQNCELFEQLGEYKFQNALLVRYTKKVPQVSTPTLVEVSRNLGKVGAKCCKLPEAKRMPCAEDYLSVVLNRLCVLHEKTPVSEKVTKCCTESLVNRRPCFSALELDEAYVPKAFNAETFTFHADMCTLSEKEKQVKKQTALVELVKHKPKATKEQLKGVMDNFAAFVEKCCKADDKEACFAEEGPKFVAASQAALA

How the values were obtained:
Experiment in all cases: SPR
[1] = molecular target: humanized E06 BA11
[2] = molecular target: humanized E06 BB11
[3] = molecular target: humanized E06 v2.4-2G
[4] = molecular target: 2V-BA11-2V (Squalus acanthias)
[5] = molecular target: 2V-E06-2V (Squalus acanthias | dogfish)
[6] = molecular target: 2V-BB11-2V (Squalus acanthias)
[7] = molecular target: 2V-BB10-2V (Squalus acanthias)

Binder | Kd [1] [nM] | Kd [2] [nM] | Kd [3] [nM] | Kd [4] [nM] | koff [4] [s⁻¹] | Kd [5] [nM] | koff [5] [s⁻¹] | Kd [6] [nM] | koff [6] [s⁻¹] | Kd [7] [nM] | koff [7] [s⁻¹]
B1 | 130 | 8.29 | 7.64 | 18.7 | 0.00054 | 7.6 | 0.00075 | 1.49 | 0.0035 |  | 
B2 |  |  |  | 7.95 | 9.48e-05 | 0.76 | 0.000126 | 0.64 | 0.000472 | 5.5 | 0.00439
